These results are taken from publication PMC2675061.

One assay has as its target PTP-SL 147-549 (C480S). As to the kind of experiment: ITC; ERK2 (75-100 µM) injected into PTP-SL (8-10 µM) in the cell, 30 °C; single-site binding model.
In assay [1] the target is PTP-SL full cytoplasmic region (aa147-549). Nature of the assay: SEC; Superdex 200 HR 10/30 analytical column; 10 mM Hepes, 150 mM NaCl, 0.1 mM EDTA, 5 mM DTT, pH 7.5, no SDS; 100 µl sample, 0.5 ml/min; apparent MW against Bio-Rad gel filtration standard.

For “ERK2 (from UniProt P63086 1-358) (enzyme)”, in the assay with PTP-SL 147-549 (C480S), the Ka stood at 6.6e+06 M⁻¹, the Kd is 150 nM, the dH is -21 kcal/mol and the stoichiometry N was found to be 1.06.
“PTP-SL full cytoplasmic region (aa147-549) (domain or fragment)”: in assay [1], the stoichiometry N was determined as 2.
